In one assay the target is T1, human CD161 (NKR-P1A) (human, UniProt Q12918 1-225).
T1 construct: Native on polyclonal human NK and T cells in the staining and functional assays; The background calls CD161 a disulfide-bond homodimer; also called CD161 receptor; CD161-pIRES2-EGFP transfected HEK293T cells
T1 sequence: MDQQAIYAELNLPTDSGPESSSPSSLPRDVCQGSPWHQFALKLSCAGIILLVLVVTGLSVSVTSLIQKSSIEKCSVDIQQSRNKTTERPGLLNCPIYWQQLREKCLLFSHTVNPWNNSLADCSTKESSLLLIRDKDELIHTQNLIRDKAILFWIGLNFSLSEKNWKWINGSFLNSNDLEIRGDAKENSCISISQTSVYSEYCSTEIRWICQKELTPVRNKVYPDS
The experiment in a line: flow cytometry, LLT1-Fc multimer on CD161-transfected HEK293T cells. On the procedure: (§1) Flow cytometry using the LLT1-Fc-ProteinA-biotin-Streptavidin-APC multimer (LLT1-multimer) was performed to identify the receptor of LLT1.
(A flow cytometer gives signals particle by particle.)

For assay [1], the target named is T2, human LLT1 (Lectin-like transcript 1), full length (human, UniProt Q9UHP7 1-191).
T2 construct: Expressed on transfected HEK293T, Hela, C1R and P815 cells; The background says LLT1 is a homodimer on the cell surface; also called LLT1-pIRES2-EGFP transfected HEK293T cells
T2 sequence: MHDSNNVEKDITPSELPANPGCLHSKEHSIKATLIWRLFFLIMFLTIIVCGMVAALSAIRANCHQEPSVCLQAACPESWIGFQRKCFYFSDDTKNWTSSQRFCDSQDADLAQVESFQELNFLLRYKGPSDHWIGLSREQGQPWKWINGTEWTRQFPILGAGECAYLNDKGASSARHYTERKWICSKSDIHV
The experiment in a line: flow cytometry, LLT1 multimer on LLT1-transfected HEK293T cells. On the procedure: as §1

B1: LLT1-Fc-ProteinA-biotin-Streptavidin-APC multimer (Fc fusion)
chain: RANCHQEPSVCLQAACPESWIGFQRKCFYFSDDTKNWTSSQRFCDSQDADLAQVESFQELNFLLRYKGPSDHWIGLSREQGQPWKWINGTEWTRQFPILGAGECAYLNDKGASSARHYTERKWICSKSDIHV
notes: also called LLT1-multimer; LLT1 multimer; not shown: Fc portion of human IgG1
In the case of B1, the binding result with human CD161 (NKR-P1A) was “binds”; in assay [1], “no binding”.

Source of the values: US20090074756A1 (published 2009).
